In patent US12157773 (SYNTHEKINE, dated 2024):

target: T1, hIL27Rα ECD antigen (human, UniProt Q6UWB1 33-516); assay: PE-ELISA, periplasmic extract on antigen-coated plate
T1 construct: Antigen of biopanning and PE-ELISA; also called ECD of the human IL27Rα; IL27Rα coated on the plate
T1 sequence: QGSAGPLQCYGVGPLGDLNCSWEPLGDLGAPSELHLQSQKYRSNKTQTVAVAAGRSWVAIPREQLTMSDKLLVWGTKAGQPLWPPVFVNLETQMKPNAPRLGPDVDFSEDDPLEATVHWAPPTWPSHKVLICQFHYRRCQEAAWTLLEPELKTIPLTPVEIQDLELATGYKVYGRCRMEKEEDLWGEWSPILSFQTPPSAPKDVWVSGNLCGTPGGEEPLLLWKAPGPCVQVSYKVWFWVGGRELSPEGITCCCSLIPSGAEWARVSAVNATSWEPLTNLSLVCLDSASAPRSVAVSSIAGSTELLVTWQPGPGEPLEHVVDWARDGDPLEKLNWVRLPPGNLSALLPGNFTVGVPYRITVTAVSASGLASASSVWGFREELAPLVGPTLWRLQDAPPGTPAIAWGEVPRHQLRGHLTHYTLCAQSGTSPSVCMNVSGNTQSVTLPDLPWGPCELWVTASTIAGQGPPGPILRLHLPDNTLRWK
Procedure: (§1) Upon completion of the biopanning of Example 3, three 96-well plates of individual phage clones were isolated in order to perform periplasmic extract ELISA (PE-ELISA) on IL27Rα coated plates to identify positive VHH binders that selectively bound […]. A 96-well plate was coated with IL27Rα and PBS under the same conditions. Next, wells were blocked at 37° C. for 1 h. Then, 100 µl of extracted antibodies was added to each well and incubated for 1 h. Subsequently, 100 µl of anti-tag polyclonal antibody conjugated to HRP was added to each well and incubated at 37° C. for 1 h. Plates were developed with TMB substrate. The reaction was stopped by the addition of H2SO4. Absorbance at 450 nm was read on a microtiter plate reader. […] Positive clones were sequenced, and sequences analyzed to identify unique clonotypes.

Binder | binding result
hIL27Ra VHH3 (VHH, Camel VHH as periplasmic extract of a phage clone in the PE-ELISA; also called anti-human IL27Rα VHH; not shown: HA/His tag from the pMECS phagemid) VHH: QVQLQESGGGSVQAGGSLRLSCVASGYVSCDYFLPSWYRQAPGKEREFVSIIDGTGSTSYAASVKGRFTASEDKGKNIAYLQMNSLKPEDTAMYYCKASCVRGRAVSEYWGQGTQVTVSS | binds
hIL27Ra VHH18 (VHH, Camel VHH as periplasmic extract of a phage clone in the PE-ELISA; also called anti-human IL27Rα VHH; not shown: HA/His tag from the pMECS phagemid) VHH: QVQLQESGGGSVQAGGSLRLSCVASGYVSCDYFLPSWYRQAPGKEREFVSIIDGTGSTSYAASVKGRFTASQDKGKNIAYLQMNSLKPEDTAMYYCKASCVRGRGISEYWGQGTQVTVSS | binds
hIL27Ra VHH13 (VHH, Camel VHH as periplasmic extract of a phage clone in the PE-ELISA; also called anti-human IL27Rα VHH; not shown: HA/His tag from the pMECS phagemid) VHH: QVQLQESGGGSVQAGGSLRLSCVASGYVSCDYFLPSWYRQAPGKEREFVSIIDGTGSTSYAASVKGRFTASQDRGKNIAYLQMNSLKPEDTAMYYCKASCVRGRTISEYWGQGTQVTVSS | binds
hIL27Ra VHH5 (VHH, Camel VHH as periplasmic extract of a phage clone in the PE-ELISA; also called anti-human IL27Rα VHH; not shown: HA/His tag from the pMECS phagemid) VHH: QVQLQESGGGSVQAGGSLRLSCTASGYVSCDYFLPSWYRQAPGKEREFVSVIDGTGSTSYAASVKGRFTASQDKGKNIAYLQMNSLKPEDTAMYYCKASCVRGRAISEYWGQGTQVTVSS | binds
hIL27Ra VHH7 (VHH, Camel VHH as periplasmic extract of a phage clone in the PE-ELISA; also called anti-human IL27Rα VHH; not shown: HA/His tag from the pMECS phagemid) VHH: QVQLQESGGGLVQPGGSLRLSCAASGFTFSSYPMSWVRQAPGKGLEWISTISAGGDTTLYADSVKGRFTSSRDNAKNTLYLQLNSLKTEDTAIYYCAKRIDCNSGYCYRRNYWGQGTQVTVSS | binds
hIL27Ra VHH8 (VHH, Camel VHH as periplasmic extract of a phage clone in the PE-ELISA; also called anti-human IL27Rα VHH; not shown: HA/His tag from the pMECS phagemid) VHH: QVQLQESGGGSVQVGGSLRLSCAASGFTFSSYPMSWVRQAPGKGLEWISTISAGGDTTLYADSVKGRFTSSRDNAKNTLYLQLNSLKTEDTAIYYCAKRIDCNSGYCYRRNYWGQGTQVTVSS | binds
hIL27Ra VHH20 (VHH, Camel VHH as periplasmic extract of a phage clone in the PE-ELISA; also called anti-human IL27Rα VHH; not shown: HA/His tag from the pMECS phagemid) VHH: QVQLQESGGGLVQPGGSLRLSCAASGFTFSSYPMSWVRQAPGKGLEWVSTISSGGDTTLYADSVKGRFTSSRDNAKNTLYLQLNSLKTEDTAMYYCAKRIDCNSGYCYKRSYWGQGTQVTVSS | binds

target: T2, mIL27Rα ECD antigen (mouse, UniProt O70394 25-510); assay: as above
T2 construct: Antigen of biopanning and PE-ELISA; The immunogen was made as a fusion of the ECD (residues 25-510 of the precursor) with the human IgG1 hinge and Fc; also called ECD of mouse IL27Rα; IL27Rα coated on the plate
T2 sequence: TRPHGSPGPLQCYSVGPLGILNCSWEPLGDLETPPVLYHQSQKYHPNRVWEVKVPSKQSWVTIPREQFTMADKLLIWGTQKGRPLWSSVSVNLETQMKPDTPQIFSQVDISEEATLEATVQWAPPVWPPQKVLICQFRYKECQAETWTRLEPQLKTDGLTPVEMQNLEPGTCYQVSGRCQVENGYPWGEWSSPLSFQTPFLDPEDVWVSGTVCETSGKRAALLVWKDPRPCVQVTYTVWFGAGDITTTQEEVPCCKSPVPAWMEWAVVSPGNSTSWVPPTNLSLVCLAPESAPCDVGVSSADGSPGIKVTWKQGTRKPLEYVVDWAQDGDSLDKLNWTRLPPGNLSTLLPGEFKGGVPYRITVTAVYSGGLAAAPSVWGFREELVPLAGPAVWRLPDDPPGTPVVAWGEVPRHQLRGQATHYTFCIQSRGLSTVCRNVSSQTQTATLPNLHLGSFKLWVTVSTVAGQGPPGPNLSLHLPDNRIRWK
Procedure: as §1

Binder | binding result
mIL27Ra VHH2 (VHH, Camel VHH as periplasmic extract of a phage clone in the PE-ELISA; also called anti-mouse IL27Rα VHH; not shown: HA/His tag from the pMECS phagemid) VHH: QVQLQESGGGSVQAGGSLRLSCTASGYTSSRYCMGWFRQTPGKKREGVAAIYTGGGTTFYHGSVKGRFTISQDNTTNTVYLQMHNLKPEDTAMYYCAAGPVTRACDEYNYWGQGTQVTVSS | binds
mIL27Ra VHH13 (VHH, Camel VHH as periplasmic extract of a phage clone in the PE-ELISA; also called anti-mouse IL27Rα VHH; not shown: HA/His tag from the pMECS phagemid) VHH: QVQLQESGGGSVQAGGSLRLSCAASGYSINRMGWFRQAPGKEREGVAAISIGGGRTYYADSVKGRFTISQDNAKNTVDLQMNSLKPEDTAMYYCAAGLVYGEAWLDSRHYNKWGQGTQVTVSS | binds
mIL27Ra VHH12 (VHH, Camel VHH as periplasmic extract of a phage clone in the PE-ELISA; also called anti-mouse IL27Rα VHH; not shown: HA/His tag from the pMECS phagemid) VHH: QVQLQESGGGSVQTGGSLRLSCAASGYSINRMAWFRQAPGKEREGVAAISIGGDRTYYADSVKGRFTISQDNAKHTVDLQMNSLKPEDTAMYYCAAGLVYGEAWLDSRHYNKWGQGTQVTVSS | binds
mIL27Ra VHH4 (VHH, Camel VHH as periplasmic extract of a phage clone in the PE-ELISA; also called anti-mouse IL27Rα VHH; not shown: HA/His tag from the pMECS phagemid) VHH: QVQLQESGGGSVQAGGSLRLSCAASGYSINRMGWFRQAPGKEREGVAAISIGGGQTYYADSVKGRFTISQDNAKNTVDLQMNSLKPEDTAMYYCAAGLVYGEAWLDSRHYNKWGQGTQVTVSS | binds
mIL27Ra VHH3 (VHH, Camel VHH as periplasmic extract of a phage clone in the PE-ELISA; also called anti-mouse IL27Rα VHH; not shown: HA/His tag from the pMECS phagemid) VHH: QVQLQESGGGSVQAGGSLRLSCAGSGYSLSNYCMGWFRQAPGQGREGVASLRFVSGATFYADSVKGRFTIAQDNAKNTLYLQMNSLKPEDTAMYYCGIKSRGICGGRLVDVDFGNWGQGTQVTVSS | binds
mIL27Ra VHH1 (VHH, Camel VHH as periplasmic extract of a phage clone in the PE-ELISA; also called anti-mouse IL27Rα VHH; not shown: HA/His tag from the pMECS phagemid) VHH: QVQLQESGGGSVQAGGSLRLSCAASKNSNFMGWFRQAPGKEREGVAAMMTKNNNTYYADSVKGRFTISHDNAKNTVYLQMDSLKPEDTAVYYCAAVYRTRRLRVLEAANFDYWGQGTQVTVSS | binds
